Test results reported in the supplement of paper PMC10567573.
± gives the standard deviation.

Experiment: protein stability index of a GFP-peptide fusion (GPS, HEK-293T) (PSI 1-6); higher = more stable
[1] = treatment: DMSO, c terminus: a fixed tail appended
[2] = treatment: MLN4924 1 uM, 8 h, c terminus: a fixed tail appended
[3] = treatment: DMSO, c terminus: native
[4] = treatment: MLN4924 1 uM, 8 h, c terminus: native
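Also: 24-mer peptide tiles fused after GFP, lentivirally expressed, FACS-sorted into six equal bins by GFP/DsRed ratio, decoded by Illumina sequencing, PSI is the read-weighted mean bin number.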

Row | Sequence | protein stability index [1] | protein stability index [2] | protein stability index [3] | protein stability index [4]
1 | AAFLALLRFLYSDEVQIGPETVMT [BTBD1] | 2.49 ± 0.78 | 2.14 ± 0.004 | – | –
2 | AAHPPLPLLPPAMGTEPAPSAPEA [TBX6] | 5.45 ± 0.24 | 5.52 ± 0.21 | – | –
3 | ACCEFLESQLDPSNCLGIRDFAET [KLHL12] | 2.79 ± 0.37 | 3 ± 0.5 | – | –
4 | ACRRRDALTGHLRTHSVIKEETNH [IKZF1] | 4.01 ± 0.76 | 3.76 ± 0.89 | – | –
5 | ACYFGHRQVVQDLLKAGAEVNVLN [OSBPL1A] | 2.46 ± 0.2 | 2.6 ± 0.38 | – | –
6 | ADMLKQYFRDLPEPLMTNKLSETF [DLC1] | 2.71 ± 0.26 | 2.86 ± 0.22 | – | –
7 | AEDEEMNRMHESMKLFDSICNNKW [GNAI1] | 3.97 ± 0.21 | 4.02 ± 0.22 | – | –
8 | AEEAGLKNNDLVVAVNGESVETLD [PDZK1] | 5.49 ± 0.2 | 5.51 ± 0.26 | – | –
9 | AEEYDEKTSELLVRKWRVKSALGA [DPCD] | 3.34 ± 0.36 | 4.04 ± 0.29 | – | –
10 | AEGPNRLLYKDGFSTILHLLLGSP [LPCAT4] | 2.23 ± 0.98 | 2.08 ± 0.29 | – | –
11 | AEGRVVGRKDITSILRAPAYPLEL [MOSPD3] | 3.27 ± 0.19 | 3.33 ± 0.18 | – | –
12 | AENSPYLNPQLVQPAKKPLLWSDP [ESRRG] | 3.9 ± 0.25 | 3.81 ± 0.23 | – | –
13 | AEPGALGEPGAAAPAMYDDESAID [CEBPD] | 5.6 ± 0.57 | 5.77 ± 0.21 | – | –
14 | AESSVPPVTSIGIDNLGLKLEENL [SLC35F2] | 4.97 ± 0.2 | 5.13 ± 0.13 | – | –
15 | AFAERYAPDKTSTVLTRHSQPATP [PDLIM7] | 4 ± 0.3 | 3.82 ± 0.18 | – | –
16 | AFHGLSLGLSLTNGLALGPDLNIL [PSD2] | 2.57 ± 0.56 | 2.54 ± 0.5 | – | –
17 | AFLGPDEAFALPDSLLVVLDMDEG [SPSB4] | 2.45 ± 0.39 | 2.6 ± 0.38 | – | –
18 | AFSPIVILTERVSLPFKPFAIILP [MIA2] | – | 2.87 ± 0.24 | – | –
19 | AGSVVAAVQGLNLRSPNNFLSYYR [CCND1] | 2.58 ± 0.2 | 2.61 ± 0.32 | – | –
20 | AGTAGVGETGSGDQAGGEGKHITV [MYOZ1] | 5.51 ± 0.14 | 5.05 ± 0.71 | – | –
21 | AHGADPTHRLKDGSTMLIEAAKGG [ANKRD17] | 4.7 ± 0.31 | 4.91 ± 0.16 | – | –
22 | AHNSNWYITFQSDTDAQQAFILKR [LARP4] | 2.38 ± 0.25 | 2.4 ± 0.55 | – | –
23 | AHRERNEFPEDPEFEAVVRQAELA [PI4K2A] | 5.32 ± 0.12 | 5.36 ± 0.43 | – | –

Row | Sequence | protein stability index [1] | protein stability index [2] | protein stability index [3] | protein stability index [4]
24 | AHSSSNTIRSGISPNLNVVDGRLT [SASS6] | 4.16 ± 0.28 | 4.31 ± 0.12 | – | –
25 | AKEDGKADTKKRHTPRGHAESTSN [SMOC2] | 5.53 ± 0.25 | 5.45 ± 0.35 | – | –
26 | AKGGSRLCTPEGWFSCQGPFDMDS [DFFB] | 3.01 ± 0.3 | 3.1 ± 0.27 | – | –
27 | AKMAGIGIREASSGGGGSSSNFHI [KRT15] | 3.16 ± 0.4 | 3.14 ± 0.27 | – | –
28 | AKQIMEETYKMEFMYSGVENKQVV [INTS4] | 2.23 ± 0.31 | 2.65 ± 0.61 | – | –
29 | AKRLWKVCVEHHTFFRLLLPEAPP [EPB41L3] | 2.48 ± 0.88 | 2.42 ± 0.76 | – | –
30 | ALFAQVQRGALPAPDPELAAEMYQ [RSAD1] | 3.69 ± 0.087 | 3.78 ± 0.34 | – | –
31 | ALLALDENFDHNTLALILQIPTQN [PPFIA4] | 2.21 ± 0.47 | 2.17 ± 0.29 | – | –
32 | ALLTGGGSENRNHRLLNMARNNND [RNF180] | 3.7 ± 0.41 | 3.76 ± 0.35 | – | –
33 | ALPSVMRFCCCVAVIYLGYCFCGW [MCOLN1] | 2.76 ± 0.59 | 2.83 ± 0.31 | – | –
34 | ALRSHLKSFSMANGLNARMMHGGS [RAB40B] | 2.71 ± 0.38 | 2.5 ± 0.62 | – | –
35 | ANDGDYWRLLNPGEYVVTAKAEGF [CPXM2] | 2.81 ± 0.35 | 2.87 ± 0.081 | – | –
36 | ANMEDLTEVITASEFHPHHCNLFV [PPP2R2C] | 2.49 ± 0.3 | 2.41 ± 0.24 | – | –
37 | ANQKLSEKLAAGALPHINARGPVR [CCDC3] | 3.62 ± 0.43 | 3.86 ± 0.77 | – | –
38 | APAQRATRGFLRSPSSDLDTDAEG [RETREG3] | 5.44 ± 0.13 | 5.14 ± 0.18 | – | –
39 | APGTGPAQTELLCCLVKMESLEPD [FANCE] | 3.28 ± 0.23 | 3.39 ± 0.12 | – | –
40 | APTKPHDYRQEQPETFWIQRAPQL [SPAG8] | 3.61 ± 0.11 | 3.73 ± 0.19 | – | –
41 | APVPTHSTVSELSRSPVATATSC [DUSP5] | – | – | 2.72 ± 0.17 | 2.86 ± 0.13
42 | AQLQALRQKEVDFCISLLRERFME [INTS3] | 2.61 ± 0.27 | 2.58 ± 0.59 | – | –
43 | AQNNCPAIMNALIEAGAHMDATNA [FEM1A] | 4.46 ± 0.23 | 4.49 ± 0.079 | – | –
44 | AQRRRMDEISDHAKVLTLSDDLER [EIF5] | 4.98 ± 0.26 | 5.04 ± 0.22 | – | –
45 | AQSGERECHIVVLTDDDVVDWDEE [BTBD10] | 5.205 ± 0.041 | 5.14 ± 0.28 | – | –
46 | ARELQEALPEAPAPLLPHITATSL [BCL2L13] | 4.32 ± 0.4 | 4.32 ± 0.22 | – | –

Row | Sequence | protein stability index [1] | protein stability index [2] | protein stability index [3] | protein stability index [4]
47 | ARFVSSGSGGGYGGGMRVCGFGGG [KRT15] | 2.63 ± 0.31 | 2.74 ± 0.25 | – | –
48 | ARVNENLARKIASRNEFDRTIAET [SSNA1] | 3.95 ± 0.15 | 4.06 ± 0.2 | – | –
49 | ASHQQQVLPPRQPSALVPSVTEYR [MYBL2] | 4.38 ± 0.28 | 4.37 ± 0.15 | – | –
50 | ASKMESTIKPRRVEPVCSGLQAQI [CHCHD6] | 3.47 ± 0.17 | 3.6 ± 0.24 | – | –
51 | ASLNHLDSHILLCLMGLAETPGCA [DCAF4] | 3.14 ± 0.58 | 2.82 ± 0.34 | – | –
52 | ASQSPKKPPAKDPLADLNIKDFL [SNAP91] | – | – | 4.45 ± 0.29 | 4.58 ± 0.34
53 | ASSSPVTLRQKTVDWRRVSRLQED [SLA] | 3.9 ± 0.36 | 3.77 ± 0.32 | – | –
54 | ASSVESTLPVLEASSWKKQVSHDF [FBXO34] | 3.56 ± 0.49 | 3.67 ± 0.62 | – | –
55 | ASTVLKSVGFQSNEAASLASTGVG [SLC2A12] | 4.16 ± 0.3 | 4.15 ± 0.35 | – | –
56 | ASVINNMLAEIFCQTGGVEDQEEW [ZBED1] | 3.31 ± 0.31 | 3.89 ± 0.33 | – | –
57 | ATLKGPDSHYGTKGLKKVVHETPA [BTBD1] | 4.21 ± 0.34 | 4.543 ± 0.04 | – | –
58 | ATPRQVPSLQHLCRMSIRRVMPTQ [WSB1] | 3.83 ± 0.23 | 3.77 ± 0.15 | – | –
59 | ATVVMMTKLEERSRVKCDQYWPSR [PTPRD] | 2.42 ± 0.32 | 2.17 ± 0.38 | – | –
60 | AVAFMPEDITKGTQSLPTASASKF [AUP1] | 4.22 ± 0.18 | 4.3 ± 0.16 | – | –
61 | AVEAGQEECAKWLLLNNANPNLSN [RIPK4] | 3.82 ± 0.25 | 4.26 ± 0.47 | – | –
62 | AVGVLLLGLVGYYIFRVANHQKDL [DHCR7] | 2.84 ± 0.29 | 2.79 ± 0.53 | – | –
63 | AVLGFPGFSSGRHRWQVDLQLGDG [TRIM15] | 2.18 ± 0.069 | 2.22 ± 0.17 | – | –
64 | AYFPYFKKHNVTAVVRLNKKIYEA [CDC14A] | 2.34 ± 0.33 | 2.08 ± 0.16 | – | –
65 | AYPFYWAWLPQAKVPFSQEIKDLI [PI4K2A] | 2.23 ± 0.32 | 2.13 ± 0.14 | – | –
66 | CDKHSKLFEEPEDPSNRSFFSEII [PPP2R2C] | 3.36 ± 0.17 | 3.57 ± 0.2 | – | –
67 | CEYETRLPGNHSTSQEIFRQRFRH [ZNF232] | 3.48 ± 0.25 | 3.4 ± 0.17 | – | –
68 | CKACITRWWEDLERDFPCPVCRKT [TRIM39] | 3.97 ± 0.27 | 4.25 ± 0.62 | – | –
69 | CLDSPGPLDSKENLENPMRRIHSL [CDC25A] | 4.27 ± 0.19 | 3.91 ± 0.26 | – | –

Row | Sequence | protein stability index [1] | protein stability index [2] | protein stability index [3] | protein stability index [4]
70 | CLFSLINGDDMFVTFAAMQAQQGR [MCOLN1] | 2.97 ± 0.47 | 2.74 ± 0.66 | – | –
71 | CLGSLASKLSRKYVKAKKSIDKDE [FAN1] | 2.7 ± 0.16 | 2.94 ± 0.4 | – | –
72 | CLMGLAETPGCATLLPASLFVNSH [DCAF4] | 2.35 ± 0.3 | 2.35 ± 0.34 | – | –
73 | CNCALEELRLVFGPLGDQLHAQLR [ELF3] | 2.46 ± 0.86 | 2.33 ± 0.38 | – | –
74 | CPVPAHRRGSWRLPYTDGLSWELL [CTBP1-DT] | 2.49 ± 0.34 | 2.59 ± 0.31 | – | –
75 | CQEEQLRSHENKLRQLTAELAEHR [PSD2] | 4.41 ± 0.25 | 4.34 ± 0.16 | – | –
76 | CQPRNLDKERAVLLQRRKRENMSD [KMT2E] | 4.32 ± 0.13 | 4.29 ± 0.12 | – | –
77 | CQSVLEDFNLCLFYLPSSPNLSLA [SMG5] | 2.5 ± 0.65 | 2.72 ± 0.63 | – | –
78 | CWSRDGHKLVSASTDNIVSQWDVL [RBBP5] | 2.81 ± 0.12 | 2.87 ± 0.18 | – | –
79 | CYVSRRLSQLSSHDPLWRRHCKKY [FBXO3] | 2.32 ± 0.12 | 2.4 ± 0.23 | – | –
80 | DAPVPDCLGVHCDFHQGLLSFYNA [FSD1] | 2.41 ± 0.094 | 2.52 ± 0.26 | – | –
81 | DDAVAGDFALINKLDIQCDLKTLS [ATE1] | 4.18 ± 0.34 | 4 ± 0.17 | – | –
82 | DDSGKDKKKKTKKIKEKYIDQEEL [HSP90AB1] | 5.39 ± 0.29 | 5.37 ± 0.32 | – | –
83 | DDVEMKNGITQGDKLRALKSQRQP [CDC14A] | 4.91 ± 0.25 | 5.05 ± 0.25 | – | –
84 | DDVRLLCHLTPSIYTEFPDETLRS [INTS3] | 3.41 ± 0.2 | 3.49 ± 0.54 | – | –
85 | DEAELDYLMDVLVGTQALERPPGP [SERTAD1] | 3.74 ± 0.35 | 3.87 ± 0.33 | – | –
86 | DEGFIKEEERPLPEKEYQRQVWLL [KCNA1] | 3.8 ± 0.28 | 3.73 ± 0.24 | – | –
87 | DEMQEVPNRVLAPEQSLKKTKTSE [SPANXN3] | 5.57 ± 0.2 | 5.59 ± 0.24 | – | –
88 | DEQAPQRQRLLADLLHNVSQNIAA [DFFB] | 3.72 ± 0.16 | 3.58 ± 0.31 | – | –
89 | DESLCPQHHEALSLFCYEDQEAVC [TRIM39] | 4.7 ± 0.057 | 4.69 ± 0.16 | – | –
